Measured values published in PMC3985474.
Read-outs that look alike come from different tables or passages of the source.

Key:
Assay in all cases: AUC
Bac-Cys-ELP1 [1] = molecular target: Bac-Cys-ELP1
Bac-Cys-ELP1 [2] = molecular target: Bac-Cys-ELP1; remark: listed apart in the source
SynB1-Cys-ELP1 [3] = molecular target: SynB1-Cys-ELP1
SynB1-Cys-ELP1 [4] = molecular target: SynB1-Cys-ELP1; remark: listed apart in the source

Row | Substance | Ka (Bac-Cys-ELP1 [1]) [M⁻¹] | Ka (Bac-Cys-ELP1 [2]) [M⁻¹] | Ka (SynB1-Cys-ELP1 [3]) [M⁻¹] | Ka (SynB1-Cys-ELP1 [4]) [M⁻¹]
1 | Bac-Cys-ELP1 | 1290 | 552 | – | –
2 | SynB1-Cys-ELP1 | – | – | 1480 | 597
